In article PMC7525815:

Target: Fig4-C486S-Citrine (human) (human) (UniProt Q92562)
Test: co-IP

Chain of UniProt Q92562 (Q92562 whole entry C486S): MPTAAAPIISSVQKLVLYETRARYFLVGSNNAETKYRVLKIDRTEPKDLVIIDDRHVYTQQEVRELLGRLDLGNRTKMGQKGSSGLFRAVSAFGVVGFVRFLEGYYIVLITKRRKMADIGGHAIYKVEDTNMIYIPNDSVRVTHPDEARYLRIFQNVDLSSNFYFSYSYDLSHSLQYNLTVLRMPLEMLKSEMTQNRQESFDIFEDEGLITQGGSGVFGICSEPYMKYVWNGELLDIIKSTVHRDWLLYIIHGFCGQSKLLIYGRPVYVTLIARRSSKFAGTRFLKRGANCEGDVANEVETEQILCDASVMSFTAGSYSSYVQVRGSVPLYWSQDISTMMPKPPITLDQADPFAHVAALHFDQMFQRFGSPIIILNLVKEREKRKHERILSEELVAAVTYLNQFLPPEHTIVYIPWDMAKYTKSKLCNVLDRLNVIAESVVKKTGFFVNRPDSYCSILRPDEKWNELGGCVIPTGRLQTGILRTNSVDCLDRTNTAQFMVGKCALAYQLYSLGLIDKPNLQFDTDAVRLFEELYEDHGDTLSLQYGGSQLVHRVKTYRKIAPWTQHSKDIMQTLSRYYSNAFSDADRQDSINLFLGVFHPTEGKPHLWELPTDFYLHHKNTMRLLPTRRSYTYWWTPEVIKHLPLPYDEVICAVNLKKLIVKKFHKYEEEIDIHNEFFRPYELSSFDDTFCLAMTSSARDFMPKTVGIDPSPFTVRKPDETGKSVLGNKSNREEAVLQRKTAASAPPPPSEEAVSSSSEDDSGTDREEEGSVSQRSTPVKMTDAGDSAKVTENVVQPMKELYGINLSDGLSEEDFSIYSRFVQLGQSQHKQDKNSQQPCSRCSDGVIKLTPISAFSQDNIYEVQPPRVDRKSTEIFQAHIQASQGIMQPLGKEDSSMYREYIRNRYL

## PIKfyve, Q9Y2I7 1-2098
  fold PIKfyve association over wild-type Fig4: 9.27 fold
